Biological target: T1, human epidermal growth factor receptor (EGFR) on A431 cells (human, UniProt P00533 25-1210)
T1 construct: whole, on cells; The target is presented on fixed A431 cells
Experiment: ELISA on fixed A431 cells, anti-human Fc-HRP detection, SigmaPlot fit
Method: A431 cells in a concentration of 4×10⁵ cell/ml were seeded in Corning CellBIND 96-well plate for 16-24 h before assay. After PBS wash, the A431 cells were fixed with BD CytoFix fixation buffer for 15-20 min at room temperature. After fixation and PBS wash procedure, the A431 cells were blocked with StartingBlock blocking buffer for 30 min at 37° C. Plates were washed three times with PBST wash buffer and incubated with the indicated concentrations of dAb-D2-hFc and VH-dAb-D2×4-Ig in 50 ul StartingBlock blocking buffer on ice for 1.5 h. Wells were washed three times with PBST wash buffer. After washing, the plate was incubated with HRP-conjugated anti-human Fc antibody diluted 1:10,000 in StartingBlock blocking buffer on ice for 1 hour. Plates were washed and incubated with TMB. Absorbance at 450 nm was read on a microplate reader.

B1: VH-dAb-D2×4-Ig tetrameric antibody (antibody, V domains shown)
V domain 1: QVQLLESGGGLVQPGGSLRLSCAASGYRFNSEAMGWVRQAPGKGLEWVSSINMRGGSTYYADSVKGRFTISRDNSKNTLYLQMNSLRAEDTAVYYCATVPRSMWWAGLTAKPIRYWGQGTLVTVSS
V domain 2: B1 V domain 1
notes: also called tetravalent antibody; tetravalent fusion protein; not shown: CH1, CH2 and CH3 of human IgG; CL of human IgG
B1 was tested, and the Kd was roughly 6 nM.
